Here are results for 28 molecules from patent publication US20250312499A1, “KISSPEPTIN RECEPTOR (KISS1R) TARGETED THERAPEUTICS AND USES THEREOF” (priority 2024, published 2025).

Numbered stars: 1 amine (or outer) side, 2 acyl side, 3 side chain; on linkers, the order of the positions; unused ones are H or OH. Square brackets hold non-standard residues; d marks the D form. Ends that are not written are not given here. * marks the point of attachment. X2 = 4‑amino‑1‑((3-fluoro-4-methylbenzyl)glycyl)piperidine‑4‑carboxylic acid, Cc1ccc(CN(CC(=O)N2CCC(N[*:1])(C(=O)[*:2])CC2)[*:3])cc1F; DOTA = O=C(O)CN1CCN(CC(=O)O)CCN(CC(=O)*)CCN(CC(=O)O)CC1; Api(1-amidino) = N=C(N)N1CCC(N)(C(=O)O)CC1; d(γGlu) = O=C(O)[C@@H](CCC(=O)[*:2])N[*:1]; Phe(3-F) = N[C@@H](Cc1cccc(F)c1)C(=O)O; εLys = N[C@@H](CCCCN[*:1])C(=O)[*:2]; Adipoyl = O=C(CCCCC(=O)[*:2])[*:1]; 4Pal = N[C@@H](Cc1ccncc1)C(=O)O; d4Pal = N[C@H](Cc1ccncc1)C(=O)O; 4Amb = NCc1ccc(C(=O)O)cc1; Octanoyl = CCCCCCCC(=O)*; APM = not defined here; Ahx = NCCCCCC(=O)O; azaGly = NNC(=O)O Some results are limits rather than exact numbers.

The assay concerns the target human kisspeptin receptor (KISS1R) (human), Q969F8. The assay can be described thus: radioligand competition, hKISS1R membranes; legend: A is <10 nM. For orientation: Displacement assays read how much labelled ligand stays bound in the presence of the test substance.

Chain of human kisspeptin receptor (KISS1R) (human), Q969F8 (Q969F8 whole entry): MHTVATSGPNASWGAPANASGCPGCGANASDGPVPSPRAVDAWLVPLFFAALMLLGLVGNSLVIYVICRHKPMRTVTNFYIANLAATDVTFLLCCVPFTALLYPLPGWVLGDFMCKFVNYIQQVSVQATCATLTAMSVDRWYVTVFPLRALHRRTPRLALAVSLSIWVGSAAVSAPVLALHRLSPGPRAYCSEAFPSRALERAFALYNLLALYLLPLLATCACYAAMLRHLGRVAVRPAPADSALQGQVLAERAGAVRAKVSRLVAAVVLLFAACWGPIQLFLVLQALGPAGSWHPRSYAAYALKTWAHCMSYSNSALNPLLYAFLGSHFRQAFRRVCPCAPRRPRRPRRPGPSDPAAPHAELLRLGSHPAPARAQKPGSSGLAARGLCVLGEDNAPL

B1: Compound 205 (peptide)
peptide: {DOTA-4Amb}-NTF[azaGly]L[X2]Y-NH2
SMILES: Cc1ccc(CNCC(=O)N2CCC(NC(=O)[C@H](CC(C)C)NC(=O)NNC(=O)[C@H](Cc3ccccc3)NC(=O)[C@@H](NC(=O)[C@H](CC(N)=O)NC(=O)c3ccc(CNC(=O)CN4CCN(CC(=O)O)CCN(CC(=O)O)CCN(CC(=O)O)CC4)cc3)[C@@H](C)O)(C(=O)N[C@@H](Cc3ccc(O)cc3)C(N)=O)CC2)cc1F
For orientation: Ki means a measure of affinity in units of concentration, obtained from inhibition or displacement. A higher Ki goes with a looser hold on the target. Molecule B1 had an inhibition constant (Ki) of less than 10 nM.

For {3‑(2-(2-(3-(4-iodophenyl)propanamido)ethoxy)ethoxy)propanoic acid}-[dY]K(DOTA)NTF[azaGly]L[Api(1-amidino)]W-NH2 [Compound 196], the Ki was less than 10 nM.

Take {DOTA-APM}-ETF[azaGly]L[X2]W-NH2 (reading uncertain) [Compound 234]: the inhibitory constant (Ki) is less than 10 nM.

Take {3‑(2-(2-(3-(p-tolyl)propanamido)ethoxy)ethoxy)propanoic acid}-[dY]K(DOTA)NTF[azaGly]L[Api(1-amidino)]W-NH2 [Compound 195]: the Ki was less than 10 nM.

{DOTA-(1r,4r)‑4‑(aminomethyl)cyclohexane‑1‑carbonyl}-ENT[Phe(3-F)][azaGly]L[X2]W-NH2 [Compound 160] displayed a Ki of less than 10 nM.

In turn, {Me‑PEG25‑C(:O)}-[dY]K(DOTA)NTF[azaGly]L[Api(1-amidino)]W-NH2 [Compound 182] yielded a Ki of less than 10 nM.

{DOTA-2‑(4-aminopiperidin-1-yl)acetyl}-KNT[Phe(3-F)][azaGly]L[X2]W-NH2 [Compound 164] registered a Ki of less than 10 nM.

As for NTF[azaGly]L[X2]W-NH2 (not fully specified (N-terminus)) [Compound 167], the Ki was less than 10 nM.

In turn, {DOTA-APM}-ENT[Phe(3-F)][azaGly]L[X2]W-NH2 (reading uncertain) [Compound 159] returned a Ki of less than 10 nM.

B2: Compound 156 (peptide)
peptide: {DOTA}-[d(γGlu)]F[azaGly]L[X2]W-NH2
SMILES: Cc1ccc(CNCC(=O)N2CCC(NC(=O)[C@H](CC(C)C)NC(=O)NNC(=O)[C@H](Cc3ccccc3)NC(=O)CC[C@@H](NC(=O)CN3CCN(CC(=O)O)CCN(CC(=O)O)CCN(CC(=O)O)CC3)C(=O)O)(C(=O)N[C@@H](Cc3c[nH]c4ccccc34)C(N)=O)CC2)cc1F
Take B2: the inhibitory constant (Ki) was less than 10 nM.

Turning to {DOTA-APM}-ENT[beta‑(2-thienyl)alanine][azaGly]L[X2]W-NH2 (reading uncertain) [Compound 218], the Ki was less than 10 nM.

Turning to {DOTA-APM}-TF[azaGly]L[X2]W-NH2 (reading uncertain) [Compound 233], the inhibition constant (Ki) was less than 10 nM.

B3: Compound 169 (peptide)
peptide: {DOTA-Ahx}-NT[Phe(3-F)][azaGly]L[X2][4Pal]-NH2
SMILES: Cc1ccc(CNCC(=O)N2CCC(NC(=O)[C@H](CC(C)C)NC(=O)NNC(=O)[C@H](Cc3cccc(F)c3)NC(=O)[C@@H](NC(=O)[C@H](CC(N)=O)NC(=O)CCCCCNC(=O)CN3CCN(CC(=O)O)CCN(CC(=O)O)CCN(CC(=O)O)CC3)[C@@H](C)O)(C(=O)N[C@@H](Cc3ccncc3)C(N)=O)CC2)cc1F
Take B3: the Ki is less than 10 nM.

B4: Compound 206 (peptide)
peptide: {DOTA-4Amb}-[dE]NTF[azaGly]L[X2]Y-NH2
SMILES: Cc1ccc(CNCC(=O)N2CCC(NC(=O)[C@H](CC(C)C)NC(=O)NNC(=O)[C@H](Cc3ccccc3)NC(=O)[C@@H](NC(=O)[C@H](CC(N)=O)NC(=O)[C@@H](CCC(=O)O)NC(=O)c3ccc(CNC(=O)CN4CCN(CC(=O)O)CCN(CC(=O)O)CCN(CC(=O)O)CC4)cc3)[C@@H](C)O)(C(=O)N[C@@H](Cc3ccc(O)cc3)C(N)=O)CC2)cc1F
For the molecule B4, the Ki is less than 10 nM.

B5: Compound 149 (peptide)
peptide: {DOTA-4Amb}-GY[Ahx][dY][dW]NTF[azaGly]L[X2]W-NH2
SMILES: Cc1ccc(CNCC(=O)N2CCC(NC(=O)[C@H](CC(C)C)NC(=O)NNC(=O)[C@H](Cc3ccccc3)NC(=O)[C@@H](NC(=O)[C@H](CC(N)=O)NC(=O)[C@@H](Cc3c[nH]c4ccccc34)NC(=O)[C@@H](Cc3ccc(O)cc3)NC(=O)CCCCCNC(=O)[C@H](Cc3ccc(O)cc3)NC(=O)CNC(=O)c3ccc(CNC(=O)CN4CCN(CC(=O)O)CCN(CC(=O)O)CCN(CC(=O)O)CC4)cc3)[C@@H](C)O)(C(=O)N[C@@H](Cc3c[nH]c4ccccc34)C(N)=O)CC2)cc1F
Molecule B5 showed an inhibition constant Ki of less than 10 nM.

{DOTA-4Amb-Met-Trp-εLys-Adipoyl}-NTF[azaGly]L[X2]W-NH2 [Compound 168] came in with a Ki of less than 10 nM.

B6: Compound 6 (peptide)
peptide: {DOTA-Ahx}-[dY][dW]NTF[azaGly]L[Api(1-amidino)]W-NH2
SMILES: CC(C)C[C@H](NC(=O)NNC(=O)[C@H](Cc1ccccc1)NC(=O)[C@@H](NC(=O)[C@H](CC(N)=O)NC(=O)[C@@H](Cc1c[nH]c2ccccc12)NC(=O)[C@@H](Cc1ccc(O)cc1)NC(=O)CCCCCNC(=O)CN1CCN(CC(=O)O)CCN(CC(=O)O)CCN(CC(=O)O)CC1)[C@@H](C)O)C(=O)NC1(C(=O)N[C@@H](Cc2c[nH]c3ccccc23)C(N)=O)CCN(C(=N)N)CC1
As to B6, the Ki was less than 10 nM.

{DOTA-APM}-NTF[azaGly]L[X2]W-NH2 (reading uncertain) [Compound 158] came in with a Ki of less than 10 nM.

B7: Compound 213 (peptide)
peptide: {DOTA}-GY[4Amb]NTF[azaGly]L[X2]W-NH2
SMILES: Cc1ccc(CNCC(=O)N2CCC(NC(=O)[C@H](CC(C)C)NC(=O)NNC(=O)[C@H](Cc3ccccc3)NC(=O)[C@@H](NC(=O)[C@H](CC(N)=O)NC(=O)c3ccc(CNC(=O)[C@H](Cc4ccc(O)cc4)NC(=O)CNC(=O)CN4CCN(CC(=O)O)CCN(CC(=O)O)CCN(CC(=O)O)CC4)cc3)[C@@H](C)O)(C(=O)N[C@@H](Cc3c[nH]c4ccccc34)C(N)=O)CC2)cc1F
In the case of B7, the inhibition constant (Ki) was less than 10 nM.

For {2,2',2''‑(10-(2-((((1s,4s)-4-carboxycyclohexyl)methyl)amino)-2-oxoethyl)-1,4,7,10-tetraazacyclododecane-1,4,7-triyl)triacetic acid}-ENT[Phe(3-F)][azaGly]L[X2][4Pal]-NH2 [Compound 170], the Ki is less than 10 nM.

B8: Compound 151 (peptide)
peptide: {DOTA}-GY[dW]NTF[azaGly]L[X2]W-NH2
SMILES: Cc1ccc(CNCC(=O)N2CCC(NC(=O)[C@H](CC(C)C)NC(=O)NNC(=O)[C@H](Cc3ccccc3)NC(=O)[C@@H](NC(=O)[C@H](CC(N)=O)NC(=O)[C@@H](Cc3c[nH]c4ccccc34)NC(=O)[C@H](Cc3ccc(O)cc3)NC(=O)CNC(=O)CN3CCN(CC(=O)O)CCN(CC(=O)O)CCN(CC(=O)O)CC3)[C@@H](C)O)(C(=O)N[C@@H](Cc3c[nH]c4ccccc34)C(N)=O)CC2)cc1F
As for B8, the Ki is less than 10 nM.

Molecule {DOTA-(1r,4r)‑4‑(aminomethyl)cyclohexane‑1‑carbonyl}-[dE]NT[Phe(3-F)][azaGly]L[X2]W-NH2 [Compound 161] yielded a Ki of less than 10 nM.

Take {3‑(2-(2-methoxyethoxy)ethoxy)propanoic acid}-[dY]K(DOTA)NTF[azaGly]L[Api(1-amidino)]W-NH2 [Compound 197]: the inhibitory constant (Ki) is less than 10 nM.

B9: Compound 181 (peptide)
peptide: Octanoyl-[dY]K(DOTA)NTF[azaGly]L[X2]W-NH2
SMILES: CCCCCCCC(=O)N[C@H](Cc1ccc(O)cc1)C(=O)N[C@@H](CCCCNC(=O)CN1CCN(CC(=O)O)CCN(CC(=O)O)CCN(CC(=O)O)CC1)C(=O)N[C@@H](CC(N)=O)C(=O)N[C@H](C(=O)N[C@@H](Cc1ccccc1)C(=O)NNC(=O)N[C@@H](CC(C)C)C(=O)NC1(C(=O)N[C@@H](Cc2c[nH]c3ccccc23)C(N)=O)CCN(C(=O)CNCc2ccc(C)c(F)c2)CC1)[C@@H](C)O
As for B9, the Ki was less than 10 nM.

Take F[azaGly]L[X2]W-NH2 (not fully specified (N-terminus)) [Compound 203]: the Ki was less than 10 nM.

In turn, {DOTA-4Amb}-[D‑3‑aminopentanedioic acid]NT[Phe(3-F)][azaGly]L[X2][4Pal]-NH2 [Compound 232] returned an inhibition constant Ki of less than 10 nM.

Regarding {DOTA-trans‑4‑(aminomethyl)cyclohexane‑1‑carboxylic acid}-F[azaGly]L[X2]W-NH2 [Compound 192], the Ki was less than 10 nM.

B10: Compound 193 (peptide)
peptide: {DOTA}-G[dY][d4Pal]NTF[azaGly]L[X2]Y-NH2
SMILES: Cc1ccc(CNCC(=O)N2CCC(NC(=O)[C@H](CC(C)C)NC(=O)NNC(=O)[C@H](Cc3ccccc3)NC(=O)[C@@H](NC(=O)[C@H](CC(N)=O)NC(=O)[C@@H](Cc3ccncc3)NC(=O)[C@@H](Cc3ccc(O)cc3)NC(=O)CNC(=O)CN3CCN(CC(=O)O)CCN(CC(=O)O)CCN(CC(=O)O)CC3)[C@@H](C)O)(C(=O)N[C@@H](Cc3ccc(O)cc3)C(N)=O)CC2)cc1F
Molecule B10 yielded a Ki of less than 10 nM.
